Experimental data: patent US6245531

What was measured:
[1] = biological target: T1, Ecdysone receptor EcR (878 aa ORF, Table 2) (Drosophila melanogaster) (UniProt P34021); experiment: pulldown; details: anti-EcR immunoprecipitation on magnetic beads; 180 mM KCl EcR buffer pH 7.0, poly dI/dC, 25 C; no hormone stated; antibody dependent; scale: fold preference over average vector sequences
T1 sequence: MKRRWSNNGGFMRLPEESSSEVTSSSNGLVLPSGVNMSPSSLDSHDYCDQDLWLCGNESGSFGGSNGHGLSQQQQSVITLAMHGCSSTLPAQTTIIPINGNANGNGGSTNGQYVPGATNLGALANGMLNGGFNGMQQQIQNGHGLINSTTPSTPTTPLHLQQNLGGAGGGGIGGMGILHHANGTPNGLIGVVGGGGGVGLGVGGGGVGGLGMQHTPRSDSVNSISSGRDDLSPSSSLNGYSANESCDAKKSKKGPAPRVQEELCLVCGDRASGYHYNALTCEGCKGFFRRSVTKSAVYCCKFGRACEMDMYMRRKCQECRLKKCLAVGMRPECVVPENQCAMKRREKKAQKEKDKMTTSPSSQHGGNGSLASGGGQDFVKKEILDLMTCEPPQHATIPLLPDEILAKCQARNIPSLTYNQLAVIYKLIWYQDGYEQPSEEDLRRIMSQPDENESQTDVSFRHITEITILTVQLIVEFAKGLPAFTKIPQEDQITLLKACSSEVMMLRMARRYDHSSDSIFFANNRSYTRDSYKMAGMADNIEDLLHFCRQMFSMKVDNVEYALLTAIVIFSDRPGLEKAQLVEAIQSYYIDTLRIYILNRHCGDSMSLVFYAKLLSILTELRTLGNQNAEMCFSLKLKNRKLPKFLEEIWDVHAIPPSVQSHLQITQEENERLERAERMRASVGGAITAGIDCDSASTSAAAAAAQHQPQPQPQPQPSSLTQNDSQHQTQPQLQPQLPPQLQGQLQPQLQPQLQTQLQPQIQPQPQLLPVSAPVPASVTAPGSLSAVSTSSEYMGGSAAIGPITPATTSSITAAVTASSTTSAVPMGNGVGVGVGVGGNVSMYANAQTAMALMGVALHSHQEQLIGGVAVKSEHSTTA

[2] = biological target: T2, Endogenous ecdysone receptor of Sch-2 cells (EcR) (Drosophila melanogaster) (UniProt P34021); experiment: cell_activity; details: 20-OH ecdysone 2e-6 M, beta-galactosidase reporter
T2 sequence: T1 sequence

Sequence: TCGAGAGACAAGGGTTCAATGCACTTGTCCAATG / TCGACATTGGACAAGTGCATTGAACCCTTGTCTC
- binding signal [1]: 1000

Sequence: TCGAGAGACAAGGGTTCAATGCACTTGTCCAATG / TCGACATTGGACAAGTGCATTGAACCCTTGTCTC [pEcRE/Adh/betagal reporter, 7 x EcRE upstream of Adh -34+53]
- activity (fold induction by ecdysone) [2]: 2000
